The DeepSol protein solubility set

assay: soluble on expression in E. coli; label from the status in PepcDB or PDB records

Soluble on expression in E. coli, not soluble:
MGSDKIHHHHHHMSQDVPGNLLDEIRILRSPKGYLYAGLPKFRALFGRDSIISSIQLIDLFPDIAQNTVIYLKDLQGRKLDYSIGEYPGKILHEYYDDEKIFLDRKRSIPWLNSRINYFSVDSTPLFILLIKNLFLRNLIDIEQFKDSIMMAMQFLIAYSSSDGLITYDKALLGAGLMSQSWRDGVGDIMDRLKSPVATVGVQGYFYESADFVLNLFPDSLIEESLPDLKDFYSKMREILENKFWLEETGYYGLAVDGDGVIEQAATSDPGHLIGSGILTRSRERDVIDRLFESDLLTDYGIRTLSAKDPRFDPKAYQRGSIWPQDNWIIADGIKRRGYLKEYRELRERLIAAYEYYGRMPEYFGVDRYGKIMDLSKLRIKPCYPQAWSTGAIINFVTFK
MGSDKIHHHHHHMSQHRDAAFLTAKSWQDLPASVPFRLCCIERIDETHDVVTFRFEAAGEPVRFSYKPGQFITLLLEIGGEPHSRAYTLSSSPSRPYSISITVKRVEGGKVSNYLIDNLRPGHALDAMGPSGSFNLVDIPADRYLFLSAGCGITPMFSMSRWLTDTRVGADITFVHSARSVDDLIFAPKLESMANNHSGFRLGYVIEQGNCPDWPYAPVLPGRLTLSGLDSLVSDWRERTLYVCGPEAYMAAVEAMVRDAGFAMSRFHKESFGKPGAPVKSSGQGFMLKVGDKLHPLGESGLLLEGIEALKLPIIAACRSGVCGACKCQVLEGDVERLSEMTLTEEDKANGMVLACSARALSNISLKL
MGSDKIHHHHHHMSQLLYDNGTHKCIAFTDLVEGEGIQANQFLIVNNGEGMLLDPGGNLTYKNLLAEMASYFLPAHLDYVFASHEDPDIVASANGWLLITDAKILIANEWTRFLPHFCSKGMTAGRVIGIPAQGMRVNLAGQELFVVPAHYMHSVGNFQVYDPVSKILFSGDLGANLVSGHDAAKVIEGAEAFAAHRAATSMDGFHRRYMGGQKVCRLWTNMARGMDIEWIVPQHGASFKGRETVLAFLDWFEGLESGPDLLTQKDFQFPIPENL
MGSDKIHHHHHHMSQMSFSDFEYAGKRKQTRRERFLAEMDQVVPWAGLLGLIEPFYPKAGGGRKPYPLETMLRIHLLQNWFSLSDPAMEEALYEITPMRQFAHLTLSAPIPEDTTIMNFRHLLEKHQLAPAILAVINGYLQEKGLSLRQGTIVDATIIHVPSSTKNKDGERDPEMHQTKKGNQYFFGMKAHISADVESGLVHHVHGTAANVADVTQVAELLHGEENAVYADAGYTGVEKREEHENRDVIWQIAARRSTYSKLNKRSLLYKAKRKIEYCKAQTRAKVEHPFRVIKRQFGYVKVRFRGLMKNTAQLTTLFALSNLWMARKRLMGLGELRI
MGSDKIHHHHHHMSQNASNDHMALSEDYVRNFFTYADPDNEAMLQLYRIGVFRTAKALSAGWIMPDEDARTARNLEYLRDNFEPGDVSVGELVSSETQLASFPDIYFRIRKVLDSPNSSADDISREISNDLGLTAKLLKLVNSPFYGLAHTVEDVSHAIAIVGVEEVSTLALGISAINVFKDIPQELIDMKAFWKHSVSCGVFAKLIASRIEGMKADKFFTAGLLHDVGRLIIFKKMPYASVQLLLYARENQLPVVESEEDHLGFDHTQVAKQLLTEWKFPASMVDCLAFHHAPSQAQDQLAASILQLADNMANAMEISSGGMYLLPGMEEGAWERIPLQGDDLVEIVGLFDSHIEELFKAIL
MGSDKIHHHHHHMSQTTVVNGVNVDQLMATIEQIKAKPEIAQFKFRATNQWMGGTHNQATIKDFYGACAEDDTRKPMVFDLDEPPVLLGENRGANPVEYLLVALSGCLTTSLVAHAAARGIALRGVKSRYEGDIDLRGFLGLSEEVPVGYREIRVFFSIDADLTDGQKEELIRMAQKYSPVYNTVAKPVPVAVLLDRG
MGSDKIHHHHHHMSRPADKPQPFYFAYGSNMNPAQIEARCRKPEVVATARLPDHRLGFFGSSKIWDGGEESAQPEPGADLWGVVYRLSFHDAEILDTWQKVWLDGTGPYFHFPTQVFDAEGRNYPVLLYKRDVLGPRQKPSAPYLDHIIAGAMARALPPPYIDLLRAIPTCQASTPVPRKASFNPEFFAGLACQCGD
MGSDKIHHHHHHMSSIYSAPILVFDVNETLLDIDTLTPLFTRLFGDENRLREWFAQLVLYSQTMTLSGLYTPFGELGVGALQMTADIHAVTLTEEDIQEFKQRMSETPAHPDVIPALTKLRDAGFRLVTLTNSAPSTSPTRLEKAGLSEFFEQNFSVDSVRQFKPAPAIYQMVASELSVETSELCLVACHIWDTIGAQAAGCQGAFVTRPYNALLSAPNVPKPDFIASDLITLAEHIINHQSS
MGSDKIHHHHHHMSSLLQQFHDEISLRGYSARTRNAYLYAITQLQHYANQPLDNITDEQLTAYFRYLNLEWHHSRATLKLQLNGIHFFYEHVLKRDFTIQLSLPKRPHKLPQLLSCQDIAALLYHCQNLKQRAMLALCYGCGLRVSELTHIKVADIDGQRQLLKVCQGKGACDRWVILSPTLLILLRQYWQAYHPVEWLFASTYHDVVYPLHESTFRKALAKAARLASITKPCSPHSLRHAYATHQLQAGMPLHQLQAQLGHHSIKSTERYLHWSPELGHQGCDLLASLGGMPWQPPTI
MGSDKIHHHHHHMSSNNRKKLLLMGRSGSGKSSMRSIIFSNYSAFDTRRLGATIDVEHSHLRFLGNMTLNLWDCGGQDVFMENYFTKQKDHIFQMVQVLIHVFDVESTEVLKDIEIFAKALKQLRKYSPDAKIFVLLHKMDLVQLDKREELFQIMMKNLSETSSEFGFPNLIGFPTSIWDESLYKAWSQIVCSLIPNMSNHQSNLKKFKEIMNALEIILFERTTFLVICSSNGENSNENHDSSDNNNVLLDPKRFEKISNIMKNFKQSCTKLKSGFKTLILNNNIYVSELSSNMVCFIVLKDMNIPQELVLENIKKAKEFFQ
MGSDKIHHHHHHMSSSSLSSTSTRVTYAVGDFVYFDDTSATDAPYQIRKIEELVKTEKGGVDARCVVYLRRRDIPQHLLKIADQAQRRFDNYYEVDKKKPENFTTKGFIVVNGASEAAPEAAPEATEASAETSETKVKEDTDDVAEKMEEDEECPAPVGQGRTSSTEEPSASDAPAATAKDKKEEKEAKENAKNLKETAEAEATKLIDWGDGGLPLGVDKLTPDQRLKLRQHEIFMTRQSEILPAAAIRGKCRVVLLGDGEEAQNYLPLDDTFYHSLVYDPNAQTLLADK
MGSDKIHHHHHHMSSWEQRSHYLIEVAQRSLIGHKTFDLCRSHLVAASQISKGTIYNHFTTEADLVVAVACAEYEEWLAAAKRDMQRYPDPLTRFLYHHCYRLHQMLSQQRYVIERVMPNQALLLQATDSYRQRFEKISTEYNHWNRLTISEIGDIPGFNRAELVKDYLRGAMINSDDANRQADDVQLYCQFSYALSQLMGHSDKRIPTKPAFVHWLSHLPSTSAISAV
MGSDKIHHHHHHMSTRESRHPVVSRSQWLAARYYLWLHEKAFTHHRDALTAARRALPWVKVEQDYRFFGPNGALSLADLFAGRSQLLLYHFMFAEGWSEGCPGCSFLADHYDGANLHLAHHDVSLVAVSRAPYAEFQAFRQRMGWQFPWYSSHGSDFNEDFGVSVGSEGQRQYNYEPYEGNESELPGLSAFFREGDGSVYHTYSTYARGLDILVNTYNFLDIAPLGRNEGGTMDWVRHHDRYEGQPDKPHCCHR
MGSDKIHHHHHHMSVSIIDRLQAIFQDVRVSEFMNPDVIYVTPDKTLLHVKEIMRIKRISGVPVVDDKKRVVGIVSLEDIIKALEGSYIKDSVEKRMTKNVVCLKETDTLQDAVKTFEKYGYGRFPVVDDEGKLVGIVTKHDIIYFLLAKLGIMYLHDKRMEEVLEKGTSLITGEVLEKGKADFVFHIDYFDVNMIGIGASKLKRFLLERGVDEELARRIAIATYEAEANVVIHSESDGYIYCFIDNEKITVRVEDRGKGIENLELAMREGYSTAPDHIRELGFGAGMGLPNMKRYSDKMVIISEVGKGVIVEMVFFRRDRGEDKGDSGKTGA
MGSDKIHHHHHHMSVTQIVTSEDILLKLCHSVSHVLSHTSGSRVTHAAMVQNISSTRLKPDLGCFSIFDGGFSGLVVINFSAASAVEIYRRYMLNMGMPESDLAFSHNSDEVGNVMGELMNQILGDFIGKVSKELQTSISQSQPKMLTINKEITISIDANLDEPVIRRVSFMTESNHIFYLEFAMDKTEFVKTREFELDEEFDPDFLIEQHGNTRSPWSQMAGKGIVADDADDLLDELGI
MGSDKIHHHHHHMSVVDPSLIERIIRDDVRAMGAYHVPDSHGLVKLDAMENPYRLPPALRSELAARLGEVALNRYPVPSSEALRAKLKEVMQVPAGMEVLLGNGSDEIISMLALAAARPGAKVMAPVPGFVMYAMSAQFAGLEFVGVPLRADFTLDRGAMLAAMAEHQPAIVYLAYPNNPTGNLFDAADMEAIVRAAQGSVCRSLVVVDEAYQPFAQESWMSRLTDFGNLLVMRTVSKLGLAGIRLGYVAGDPQWLEQLDKVRPPYNVNVLTEATALFALEHVAVLDEQAAQLRAERSRVAEGMAAHGGVTVFPSAANFLLARVPDAAQTFDRLLARKVLIKNVSKMHPLLANCLRVTVSTPEENAQFLEAFAASLQD
MGSDKIHHHHHHMSYITTKNQYITVSNNKIAYRELSKGKSDIPLVMLVHLAATLDNWDPKLLDLLAEQHHVIVLDLPGVGASQGKVAPTIPGMAEQAVSIIKALGYEKINLLGLSMGGFIAQEIVRLDSQLVNRLILAGTGPRGGFEVDKVTGKTFRYMLKAGLERVDPKRYIFYNHDEAGRLEAEKVLGRMGQRSAAHADKDMNVPGFLTQLKAIKRWGREPQDDMTFITQPTLIVNGDKDMQVPTENSYTMHEKIKNSQLIIYPNAGHGSIFQNVEDFSKALLAFLEETNA
MGSDKIHHHHHHMSYNFEEERVIKEIREKNAKRVLLQFPEGLKYFSIDIVKKLREKLPNVNFIISGEPSWGACDIAEDEAQQVNADLIIHFGHTPYTWYYPKFPTIFINAESNLDISENALHSLENDISKYNGRKISLTATLQHVRLLSKIKSFLEDKGYDIVIGKPSNRFMFDGQVLGCDYKAAEVEADIYVIVSGGLFHALGLGLATNKPTIKLDPYLQKSEDITNDVRKILKVRYGKILQALDKRSWVIIQGVKVGQNRPNMIKYFYDKLTEKGYDVFTVTNKVLTLDILRNLDRNYIDVFLVTSCPRLPIDDLYNYEKPVLTPGEAKMIINNSLEPYIFPW
MGSDKIHHHHHHMSYQDGKYQTEAEGLHGPVKVATTITGGKISAVEVLVGAGEYQSKANDVIASEIIAAQSTDVDAVSGATVSSNAIMTAVKKALQEASGESQDKTSEELTTDLAIVAAGPAGLAAAVSAAEQGVKILVFEKEKITGGTANMGMGPLGINSKIQRANFNEITVAEALKNQMEYTHYRVNGRLVARLLQIVCLNYRLVGRHGSQVRRGFPLLQGIQRHLAHR
MGSDKIHHHHHHMTAISREVPRTPHDLSLYLTRLGLTAPDLGSAMQPVLDVLVSRTAAVGAGYFQLRDSTLTYQARAASGDLPQGPLMEALLAHGLPPELPLVQALEAADGALFFEDTRLDPQAAGFADLGVLALTAAPVHNQSGRLVGALLSHVFAPHPWSAEERQLVSTVTGLLTLLAARLDAEERERAAHESALRALGLMLEARDTETQGHTDRVTALALRLGRALGLSDTELRDLRWGAYLHDIGKIAIPDAILHCPGTLDLAAWARMQEHVNEGTRLAAQLPFLPRAALDVIACHHECWDGSGYPRGLAGEAIPRHARIFAACDVYDALVSARPYKRAWTHAEATAYLEQRSGHQFDPVIVRALLRVLEDEDSAAANA
